Test results: the supplement of paper PMC7877785
± gives the uncertainty stated by the source.

Test: self-splicing fitness, log relative to wild type (ln ratio); higher = more splicing; Tetrahymena group I intron in knt gene, E. coli kanamycin selection, DiMSum; sequences stand for … in CUCUCU…GGAGGGAAAAGUUAUCAGGCAUGCACCUGGUAGCUAGUCUUUAAACCAAUAGAUUGCAUCGGUUUAAAAGGCAAGACCGUCAAAUUGCGGGAAAGGGGUCAACAGCCGUUCAGUACCAAGUCUCAGGGGAAACUUUGAGAUGGCCUUGCAAAGGGUAUGGUAAUAAGCUGACGGACAUGGUCCUAACCACGCAGCCAAGUCCUAAGUCAACAGAUCUUCUGUUGAUAUGGAUGCAGUUCACAGACUAAAUGUCGGUCGGGGAAGAUGUAUUCUUCUCAUAAGAUAUAGUCGGACCUCUCCUUAAUGGGAGCUAGCGGAUGAAGUGAUGCAACACUGGAGCCGCUGGGAACUAAUUUGUAUGCGAAAGUAUAUUGAUUAGUUUUGGAGUACUCGUGGUCG
In short: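 Pooled colonies went to amplicon sequencing on an Illumina HiSeq 2500 after six replicate transformations. The plates were LB agar with 100 μg/mL carbenicillin, 50 μM IPTG and 0.2% rhamnose, with or without 25 μg/mL kanamycin, incubated overnight at 37°C or 30°C. The E. coli BL21(DE3) library had all eight P1ex-region intron nucleotides randomised, the intron placed in the knt kanamycin-resistance gene on pET-22b(+). DiMSum fitness is the error-weighted combination of replicate fold changes, kanamycin against none, normalised to wild type.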

Sequence | self-splicing fitness (ln) (30 °C) | self-splicing fitness (ln) (37 °C)
GACUAGCAAUAUUACGUAUU | -1.11 ± 0.072 | -0.646 ± 0.079
CGCCAGCAAUAUUACGCAAA | -2.31 ± 0.19 | -2.64 ± 0.26
UACCAGCAAUAUUACGUUUG | -3.36 ± 0.12 | -2.43 ± 0.13
ACAGAGCAAUAUUACGGCGU | -1.24 ± 0.12 | -0.0954 ± 0.11
GGGAAGCAAUAUUACGGCCU | -3.14 ± 0.26 | -1.35 ± 0.25
UCGUAGCAAUAUUACGUCAC | -1.39 ± 0.18 | -2 ± 0.38
GUGCAGCAAUAUUACGUUUU | -2.08 ± 0.096 | -1.69 ± 0.096
AGUCAGCAAUAUUACGCGUG | -1.28 ± 0.097 | -0.66 ± 0.11
GUACAGCAAUAUUACGUUCA | -1.51 ± 0.15 | -0.775 ± 0.17
GGGCAGCAAUAUUACGCGGG | -1.76 ± 0.16 | -1.21 ± 0.2
GUCGAGCAAUAUUACGCUCG | -1.76 ± 0.37 | 
CGGAAGCAAUAUUACGAAUG | -0.506 ± 0.079 | -0.137 ± 0.12
CCCCAGCAAUAUUACGGACG | -1.67 ± 0.096 | -0.944 ± 0.13
GGGCAGCAAUAUUACGCGCG | -0.63 ± 0.13 | -0.682 ± 0.14
CUAAAGCAAUAUUACGACCU | -4.28 ± 0.46 | -1.97 ± 0.22
CUCUAGCAAUAUUACGUACA | -3.04 ± 0.38 | -1.89 ± 0.24
UUCAAGCAAUAUUACGCAUA | -1.24 ± 0.096 | -0.0175 ± 0.1
UAAUAGCAAUAUUACGGGAG | -2.84 ± 0.17 | -3.3 ± 0.22
GGCGAGCAAUAUUACGCGGU | -3.13 ± 0.21 | -1.69 ± 0.22
CAUUAGCAAUAUUACGAUAU | -2.91 ± 0.2 | -3.27 ± 0.3
CACCAGCAAUAUUACGACAC | -3.07 ± 0.27 | -1.36 ± 0.22
GGCGAGCAAUAUUACGCGAG | -2.7 ± 0.24 | -2.24 ± 0.32
UCUUAGCAAUAUUACGGCUG | -2.71 ± 0.28 | 0.118 ± 0.24
ACGUAGCAAUAUUACGUAAG | -3.51 ± 0.17 | -2.45 ± 0.22
CAGGAGCAAUAUUACGAAAG | -1.8 ± 0.17 | -1.11 ± 0.23
UCGAAGCAAUAUUACGCGUA | -1.46 ± 0.15 | -1.19 ± 0.13

Sequence | self-splicing fitness (ln) (30 °C) | self-splicing fitness (ln) (37 °C)
UAGUAGCAAUAUUACGGGCC | -2.91 ± 0.23 | -1.62 ± 0.22
GCCAAGCAAUAUUACGAUUU | -2.95 ± 0.096 | -1.15 ± 0.09
ACUGAGCAAUAUUACGAGAC | -2.78 ± 0.22 | -2.63 ± 0.2
ACCCAGCAAUAUUACGCUAA | -1.67 ± 0.069 | -1.33 ± 0.068
AGAUAGCAAUAUUACGCGGG | -1.66 ± 0.13 | -1.68 ± 0.15
AACUAGCAAUAUUACGUUGG | -3.74 ± 0.22 | -3.5 ± 0.22
GCUGAGCAAUAUUACGAUUG | -4.26 ± 0.32 | -3.02 ± 0.22
AAUUAGCAAUAUUACGAAAU | -1.2 ± 0.16 | -1.09 ± 0.23
UCUUAGCAAUAUUACGAAUG | -2.87 ± 0.43 | -2.01 ± 0.38
GUAGAGCAAUAUUACGGAUA |  | -0.969 ± 0.41
UUACAGCAAUAUUACGACAU | -1.971 ± 0.014 | -1.02 ± 0.033
AAAAAGCAAUAUUACGUAAG | -1.08 ± 0.061 | -0.0629 ± 0.081
UGAAAGCAAUAUUACGUUGA | -3.13 ± 0.17 | -1.23 ± 0.15
CGGAAGCAAUAUUACGGUCC | -3.37 ± 0.27 | -0.831 ± 0.13
GUACAGCAAUAUUACGUCUG | -2.04 ± 0.23 | -2.09 ± 0.18
AAUUAGCAAUAUUACGAGGA | -2.64 ± 0.26 | -0.851 ± 0.18
AGCUAGCAAUAUUACGGUGC | -2.43 ± 0.17 | -2.03 ± 0.22
UAUGAGCAAUAUUACGAAAC | -2.34 ± 0.21 | 
CGCAAGCAAUAUUACGACGU | -1.73 ± 0.068 | -0.28 ± 0.069
GUUCAGCAAUAUUACGACGA | -1.26 ± 0.21 | -0.637 ± 0.18
AUGCAGCAAUAUUACGUGGA | -3.1 ± 0.29 | -1.73 ± 0.18
CAAGAGCAAUAUUACGUACA | -3.1 ± 0.35 | -1.89 ± 0.26
ACUUAGCAAUAUUACGCUAA | -2.99 ± 0.39 | -3.09 ± 0.29
CUACAGCAAUAUUACGACAA | -2.42 ± 0.2 | -2.19 ± 0.21
GCAGAGCAAUAUUACGGUCA | -0.893 ± 0.21 | -0.283 ± 0.14
AAUGAGCAAUAUUACGGGGA | -2.54 ± 0.17 | -2.22 ± 0.25

Sequence | self-splicing fitness (ln) (30 °C) | self-splicing fitness (ln) (37 °C)
GUGCAGCAAUAUUACGCGAC | -3.59 ± 0.34 | -1.8 ± 0.2
ACUUAGCAAUAUUACGGAUC | -2.09 ± 0.11 | -1.35 ± 0.16
GAAUAGCAAUAUUACGAGUA | -2.44 ± 0.17 | -1.98 ± 0.17
AGUCAGCAAUAUUACGGGCU | -2.43 ± 0.19 | -3.12 ± 0.43
AACAAGCAAUAUUACGCAAA | -2.08 ± 0.17 | 0.267 ± 0.13
UAGUAGCAAUAUUACGCUGG | -1.13 ± 0.099 | -1.34 ± 0.15
GCGUAGCAAUAUUACGCAUG |  | -2.21 ± 0.23
GAUGAGCAAUAUUACGGAAG | -2.31 ± 0.33 | 
CGGAAGCAAUAUUACGCAGA | -1.98 ± 0.33 | -2.01 ± 0.3
AGAUAGCAAUAUUACGUCGA | -0.721 ± 0.13 | 0.375 ± 0.13
CUCUAGCAAUAUUACGUAUG | -3.02 ± 0.21 | -1.61 ± 0.15
UCAUAGCAAUAUUACGGUCA | -1.1 ± 0.16 | -0.484 ± 0.16
GACGAGCAAUAUUACGUUUG | -3.1 ± 0.22 | -1.94 ± 0.26
GAGCAGCAAUAUUACGAUGC | -1.47 ± 0.092 | -0.514 ± 0.11
AAGGAGCAAUAUUACGACUC | -1.25 ± 0.15 | -0.365 ± 0.17
UAUGAGCAAUAUUACGACUU | -2.66 ± 0.24 | 
UACCAGCAAUAUUACGUCCC | -1.47 ± 0.35 | -1.38 ± 0.38
AGGCAGCAAUAUUACGGCGG | -1.62 ± 0.094 | -1.11 ± 0.13
UGCAAGCAAUAUUACGGAAA | -1.82 ± 0.17 | -2.45 ± 0.22
UGUCAGCAAUAUUACGAUGG | -0.3 ± 0.073 | 0.195 ± 0.098
GAUCAGCAAUAUUACGGACC | -0.933 ± 0.32 | -1.08 ± 0.36
CUGUAGCAAUAUUACGCCCA | -1.79 ± 0.28 | -2.56 ± 0.27
UAAAAGCAAUAUUACGAUCA | -0.503 ± 0.08 | 0.0071 ± 0.11
GAAAAGCAAUAUUACGGAUC | -1.04 ± 0.072 | -0.773 ± 0.087
AGGGAGCAAUAUUACGAUGU | -1.22 ± 0.098 | -2.13 ± 0.19
